Reference: PMC8632968

Target: S. cerevisiae full-length Ty3 integrase (assembled on Ty3 LTR DNA as the Ty3 intasome) (S. cerevisiae)
Assay: cryo-EM structure; minimal integration machinery: Ty3 intasome with TFIIIB on unlabelled 55-bp tD(GUC)K DNA, without TFIIIC; gel filtration in 40 mM Tris pH 7, 80 mM NaCl, 7 mM MgCl2, 1 mM DTT; un-crosslinked; strand-transfer complex, 4.0 Å

With “S. cerevisiae full-length Ty3 integrase (assembled on Ty3 LTR DNA as the Ty3 intasome) (enzyme)” the stoichiometry N was 4.
